experiment: yeast display, Sf9 membrane polyspecificity reagent, FACS + sequencing; frameworks hold sequencing errors
How it was run: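 Nanobodies from a synthetic yeast display library (Saccharomyces cerevisiae BJ5465), induced 36–48 hours with galactose, were stained 1 hour at 4 °C with 10% biotinylated, detergent-solubilized Sf9 membrane reagent, enriched on streptavidin microbeads, then FACS-sorted. Anti-HA (expression) and streptavidin (reagent binding) fluorescence set low and high (top ~1%) gates. Polyreactivity labels come from the gate of origin. Genes were colony-PCR amplified, MiSeq 2 × 250 sequenced and filtered by CDR length.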

Sequence | polyreactivity (PSR sort gate)
QVQLVESGGGLVQAGGSLRLSCAASGSTFYLYAMGWYRQAPWKEREFVARITWSGGSTYYADSVKGRFTISRDNAKNTVYLQMNSLKPEDTAVYYCNATKTGPATVRYYYWGQGTQVTVSS | high polyreactivity
QVQLVESGGGLVQAGGSLRLSCAASGRTGVNAIGWYRQAPGKERELVAAINNGDSTYYADSVKGRFTISRDNAKNTVYLQMNSLKPEDTAVYYCAAGLDEGDYWQESDYWGQGTQVTVSS | low polyreactivity
QVQLVESGGGLVQAGGSLRLSCAASGRIFKLYAMGWYRQAPGKERELVASITWGGGSTNYADSVKGRFTISRDNAKNTVYLQMNSLKPEDTAVYYCAAVYSKYAVFWEYDYWGQGTQVTVSS | low polyreactivity
QVQLVESGGGLVQPGGSLRLSCAASGGIFRSYAMGSYRQAPGKERELVAVITKSGGDTYYADSVKGRFTISRDNAKNTVYLQMNRVKPVDTAVYYCAAVYGYYTYWIPGFTWAVDYWGQGTQVTVSS | low polyreactivity
QVQLVESGGGLVQAGGSLRLSCAASGFILTDNAKGWNRQAPGKERELVAAINSGGSTYYADSVKGRFTISRDNAKNTVYLQMNSLKPEDTEVYYCAADYSTWLRAYDYWGQGTQVTVSS | low polyreactivity
QVQLVESGGGLVQAGCSLRLSCAASGSIRGYAMGWSRQAPGKERELVASITWSGGSTYYADSVKGRFTMSRDNAKYTVYLQMHSLNPEDTAVYYCAASPSPYASVIRPYDYWGQGTQVTVSS | low polyreactivity
QVQHVESGGGLVQAGGSLRLSCAASGLTFYRYAMGWNRQAPGKERELVAAITSGGSTYYADSVKGRFTISRDNAKNTVYLQMNSLKPEDTAVYYCARQYGYQPERYGYWGQGTQVTVSS | low polyreactivity
QVQLVDSGGGLVQAGGSLRLSCAASGSTFRYYAMGWYRQAPGKEREFVAAITRSGGSTYYADSVKGRFTISRDNAKNTVYLQMNSLKPEETAVYYCNARPSASSRKKLERYYWGQGTQVTVSS | low polyreactivity
QVQLEESGGGLVQAGGSLRLTCAASGRIFYRYGMGWYRQATGKERELVAAISRTGGSTYYADSVKGRFTISRDNAKNSVYLQMNSLKPEDTAVYYCNATSNYRYDFWGQGTQVTVSS | low polyreactivity
QVQLVESGGGLVQAGGSLRLSCAASGFIFPYYALGWYRQAPGKEREFVAAISKTAGRTYYADSVKGRFTISRDNAKNTVYLQMNSLKPEDTAVYYCAVGNKRDAYYQYSSYGYWGQGTQVTVSS | low polyreactivity
QVQLVESGGGLVQAGGSLRLSCAASGRIFYWNTMGWYRQAPGKEREFVAAITYGGGRTYYADSVKGRFTISRDNAKNTVYLQMNSLKPEDTAVYYCARRIPTLYLDYDYCGQGTQVTVSS | high polyreactivity
QFQLVESGGGLVQAGGSLRLSCAASGSTFGYYAMGWYSQAPGKERELVAAITSTGRTKYADSVKGRFTISRDNAKNSVYLQMNSLKPEDTAVYYCAADIWGQGTQVTVSS | high polyreactivity
QVQLVESGGGLVQAGGSLRLSCAASGSIFGGYAMGWYRQAPGKERELVAAIDESGGSTYYADSVKGRFTISRDNAKNTVYLQMNSLKPDDTAVDYCLVFRDDSGPGDYYYWGQGTQVTVSS | low polyreactivity
HVQLVESGGGLVQAGGSLRLSCAASGLIFDWYAMGWYRQAPGKERELVADISYSGGSTNYADSVKGRFTISRDNAKNTVYLQMNSLKPEDTAVYYCAVDYYYPTLTIGYYYWGQGTQVTVSS | low polyreactivity
QVQLVESGGGLVQAGGSLRLSCAASGSILNSYAMGWYRQAPGKERELVATITSGSRTNYADSVKGRFTISRDNAKNTVYLQMNSLKPEDTAVYYCATEYQRRHYIGHNYWGQGTQVTVSS | low polyreactivity
QVQLVESGGGLVQAGRSLRLSCAASGRIFYPYAMGWYRQAPGKERELVAAIRWSSGNTRYADSVKGRFTISRDNAKNTVYLQMNSLKPEDTAVYYCAADTTVFFYRYDYWGQGTQVTVSS | high polyreactivity
QVQLVESGGGLVQAGGSLRLSCAASGSISAGNAMGWYRQAPGKERELVAAITTSGGSTYYADSVKGRFTISRDNAKNTVYLQMNSLKPEDTAVYYCNVDPRKRSYDYWGQGTQVTVSS | high polyreactivity
QDQLVESGGGLVQAGGSLRLSCAASGFNFDRYAMGWYRQAPGKERELVAAISRRGGSTYYADSVKGRFTISRDNAKNTVYLQMNSQKPEDTAVYYCAASRPSPRPRYGYWGQGTQVTVSS | high polyreactivity
QVQLVESGGGLVQAGGSLRLSCAASGRIFNRYARGWYRQAPGKERELVAAITYNGGSTYYADSVKGRFTISRDNAKNTVYLQMNSLKPEDTAVYYCNAVEVLDEGCGFWYYYWGQGTQVTVSS | high polyreactivity
QVQLVESGGGLVQAGGSLRLSCAASGRTFVVYAMGWYRQAPGKERELVAVIRVIGGSTNYADSVKRRFTISRDNAKNTVYLQMYSLKPEDTAVYYCAAAWSHSRWDTHDYWGQGTQVNVSS | low polyreactivity
QVQLVESGGGLVQAGGSLRLSCAASGIIFSPYARGWYRQAPGKERELVAAISYSGGSTYYADSVKGRFTISRDNAKNTVYLQMNSLKPEDTAVYYCAVVYSYYLAVLGYWDYDYWGQGTQVTVSS | low polyreactivity
QVQLVESGGGLVQAGGSLRLSCAASGRTFGLYAMGWYRQAPGKERELVAAISRSGGRTYYADSVKGRFTISRDNAKNTVYLQMNSLKPEDTAVYYCSTYYDRASYRYDYWGQGTQETVSS | high polyreactivity

Sequence | polyreactivity (PSR sort gate)
QVQLVESGGGLVQEGGILRLSCAASGRTFTWYAMEWYRQAPGKERELVAAISFSGGSTYYADSVKGRFTISRDNAKNTVYLQMNSLKPEDSAVYYCARASGDAWEGPRLDYWGQGTQVTVSS | low polyreactivity
QVQLVESGGGLVQAGGSLRLSSAASGRIFYNYAMGWYRQAPGKERELVAAISVSGGSTYYADSVKGRFTISRDNAKNTVYLQMNSLKPEDTAVYYCAAGRGYTYNYWGQGSQVTVSS | high polyreactivity
QVQLVESGGGLVQAGGSLRLSCAASGFIFFRYAMGWYRQAPGKERELVAAISSSGGSTYYADSVKGRFTISRDNAKNTVYLQMNSLKPEDTAVYYCAAPRYRIFVGLGMDYWGQGTQVTVSS | high polyreactivity
QVQLVESGGGLVQAGGSLRLSCAASGRTFGSYAMGWYRQAPGKERELVAAITWSGTGTYYADSVKGRFTISRDNAKNTVYLQMNSLKPEDTAVYYCAVYTIGYLAWYQKFDYWGQGTQVTVSS | high polyreactivity
QVQLVESGGGLVQAGCSLRLSCGASGSTFIHYAMGWYRQAPGTERELVAAITWDGSSTYYADSVKGRFTISLDNAKNTVYLQMNSLKPEDTAVYDCATDYAGQYPVDGQAIHDYWGQGTQVTVSS | low polyreactivity
QVQHGESGGGLVQAGGSLRLSCAASGRIFYYYAMGWYRQAPGKERELVAAITWNAGITYYADSVKGRFTISRDNAKNTVYLQMNSLKPEDSAVYYCAASRWARGRDYWGQGTQVTVSS | high polyreactivity
QVQLVESGGGLVQAGGSLRLSCAASGSIFRSNAMGWYRQAPGKEREVVAAISSRGGSTYYADSVKGRFTISRDNAKNTVYLQMNSLKPEDTAVYFCNKARYTVISYDEYDYWGQGTQVTVSS | high polyreactivity
QVQLVESGGGLVQAGGSLRLSCAASGRIFYRYGMGWYRQAPGKERELVASITRGGSTYYADSVKGRFTISRDNAKYTVYLQMNSLKPEDTAVYYCATKSSAGYDYWGQGTQVTVSS | low polyreactivity
QVQLVESGGALVQAGGSLRLSCAASGSTIGDNAMGWYRQAPGKERELVASISWSGASTYYADSVKGRFTISRDNAKNTFYLPMKSLKPEETEVYYCAVYYSYFSHLYHLLFYYWGQGTQVTVSS | low polyreactivity
QVQLVESGGGLVQAGGSLRLSCAASGRTFWANTMGWYRQAPGKERELVAAISKRGGSTYYADSVKGRFTISRDNAKNTVYLQMISLKPEDTAVFYCNADKSGWYDYWGQGTQVTVSS | high polyreactivity
QVQLVESGGGLVQAGGSLRLSCAASGSTFRVYAMGWYRQAPGNERELVAAISLSGGRTYYADSVKGRFTISRDNAKNTVYLQMNSLKPEDTAVYYCARRYRDYGRYGYWGQGTQVTVSS | high polyreactivity
QVQLVESGGGLVQEGGSLRLSCAASGSTFVINAMGWYRQAPGKERELVADIDYRGGSTNYSDSVKGRFTISRDNAKNTVYLQMNSLKPEVTAVYYCNKRYVIRRRGYDYWGQGTQVTVSS | low polyreactivity
QVQLVESGGGLVQAGGSLRLSCAASGSIFHQYAMGWYRQAPGKERELVAAISANGGRTYYADSVKGRFTISRDNAKNTVYLQMNSLIPEDTAVYYCAASRPSYGVRYGYWGQGTQVTGSS | high polyreactivity
KVQLVESGGGLVQAGGSLRLSCAASGLILRRYAMGWSRQAPGKEREFVARITWSGSRTYYADSVKGRFTISRDYGKNTVYLQMKSLKPEDSAFYYCAAVGRLARRDYWGQGTQVSVSS | high polyreactivity
QVQLVESGGGLVQAGGSLRLSCAASGSIFEENAMGWYRQAPGKERELVAAITIGGRTNYADSVKGRFTISRDNAKNTVYLQMNSLKPEDTAVYYCAADLSSNKFWRFWTRYYYWGQGTQVTVSS | low polyreactivity
QVQLVESGGGLVQAGGSLRLSCAASGFTFDQNAMGWYRQAPGKERELVAAISVGGGSTYYADSVKGRFTISRDNAKNTVYLQMNSLKPEDTAVYYCAASYVYPASFHYYYWGQGTQVTVSS | high polyreactivity
QVQLVESGGGLVQAGGSLRLSCAASGSIFGVNAMGWYRQAPGKERELVAAISSGGSTNYADSVKGRFTISRDNAKNTVYLQMNSLKPEDTAVYYCAADTNTRSNYDYWGQGTQVTVSS | low polyreactivity
QVQLLESGGGLVPSRGSLRLSCAASGFTFAHYAMGWYRQAPGKERELVAAISGSGSSTYYADSVKGRFTISRDNAKNNVYLQMNSLKPEDTADYYCNVRWYFLYDYWGQGTQVTVSS | low polyreactivity
QVQLVESGGGLVQAGGSLRLSCAASGSIFTKYAMGWYRQAPGKERELVAAINARGGSTYYADSVKGRFTISRDNAKNTVYLQMNSLKPEDTAVYYCAARYGVGRADYYWGHGTQVTVSS | high polyreactivity
QVQIVESGGGLVQAGGSLRLSCAASGSIFPRMAMGWYIQAPGKERELVAAITTGGITNYADSVKGRFTISRDHAKNTVYLQMNSLNPDDTAVYYCAATSWRYQQSTRYKGRRYYSWGQGTQVTVSS | high polyreactivity
QVQLVESGGGLVQAGGSLRLSCAASGSIFGNYAMGWYRQAPGKERELVAGISKSGGRTYYADSVKGRFTISRDNAKITVYLQMNRLKPEDTAVYYCNALVTRYQSLDRLGDYWGQGTQVTVSS | high polyreactivity
